This passage reports amyloid nucleation score results from the supplement of paper PMC12042874.

± gives the uncertainty stated by the source.

The nature of the data set: amyloid nucleation score (Sup35N fusion, yeast selection) (log enrichment); library NNK3; higher = more nucleation; inactive = no reads after selection. In a few lines:
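After 24 hours of induction with 100 μM copper sulfate, psi-negative yeast expressing peptides of 20 random codons fused to Sup35N were grown for 7 days at 30°C on medium lacking adenine and uracil. Input and output plasmid inserts were sequenced with Illumina, and sequences with under 100 input reads were discarded. Scores for nucleation are the DiMSum log enrichment of output over input reads, centred on the mode score of non-aggregating sequences.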

Substance TWSMNIIMCLNRQVDQGFSL gave an amyloid nucleation score of 1.82 ± 0.075.

As to IYVVRIYVSWVNILHALVYS, the amyloid nucleation score entry is “inactive”.

Consider TMVFILQMLV, for which the amyloid nucleation score worked out at 1.47 ± 0.097.

For the substance TMKIMFVEPWKCRAAFQL, the amyloid nucleation score entry was “inactive”.

On to FDNFFYWSRKRD, for which the amyloid nucleation score entry was “inactive”.

CSGTSSFRDLTCGCRHCFVG yielded an amyloid nucleation score of 1.3 ± 0.099.

GTYLGELVTGLTPGRCPGHF: the amyloid nucleation score result is “inactive”.

On to KGVFRNAFELFKYHFSHAGM, for which the amyloid nucleation score entry is “inactive”.

GKSTYVLFGKWNTEKTRNRG: the amyloid nucleation score result was “inactive”.

On to SLRHLDFFRLTGFWHFYALD, for which the amyloid nucleation score result was “inactive”.

In the case of KPLCLFQARRYRW, the amyloid nucleation score entry was “inactive”.

As for LLDLDCYASLVSTTLEHMSG, the amyloid nucleation score entry is “inactive”.

Take KQLDDPRQICIFYPT: the amyloid nucleation score result was “inactive”.

In the case of ASWPNYYWSNSLILFRDKCV, the amyloid nucleation score is 0.019 ± 0.3.

Take SGKDIALMVHCVTVMWDQAY: the amyloid nucleation score result was “inactive”.

Turning to DFRSLWTRLSSHRSAFYLLS, the amyloid nucleation score result was “inactive”.

Regarding DRHSRCQ, the amyloid nucleation score entry was “inactive”.

As to IVSNTTPTQPTSVLVNYSVR, the amyloid nucleation score result was “inactive”.

As to FSFWTTSN, the amyloid nucleation score result is “inactive”.

As to RFPDLLQMVRAKAPDPLQQH, the amyloid nucleation score entry is “inactive”.

Take ARWGDSLSRDLTSGYLFGVG: the amyloid nucleation score result was “inactive”.

For LLSREERTAVLLCTETQ, the amyloid nucleation score result was “inactive”.

As for VWFINFVCLFKGSLLCISES, the amyloid nucleation score entry is “inactive”.

RMGVPTSYPDPDLSNDVER: the amyloid nucleation score entry was “inactive”.

Regarding IMRSY, the amyloid nucleation score result was “inactive”.

As for SMRSGVLGHIIQTM, the amyloid nucleation score entry is “inactive”.

Regarding NWSYRDGREPHYI, the amyloid nucleation score amounted to 1.15 ± 0.12.

For ELDMLRYEVMVCNHDDGLCE, the amyloid nucleation score result was “inactive”.

For the substance VMFIVNLY, the amyloid nucleation score was 3.07 ± 0.08.

For ASSPLITRDDKAHGLEFHSY, the amyloid nucleation score result is “inactive”.

In the case of SLKELRVSLSSLCACDSNNN, the amyloid nucleation score result is “inactive”.

On to TECMGGGSVWTQW, for which the amyloid nucleation score entry is “inactive”.

For the substance YLKGTMSDSKNGPYDRGKLT, the amyloid nucleation score entry is “inactive”.

Regarding RLMFWRELGLFSKFKLSIQG, the amyloid nucleation score result was “inactive”.

In the case of GDKISANACSMNFFDMFW, the amyloid nucleation score entry was “inactive”.

Regarding WAWNQSGFTPLYLCLEAWWS, the amyloid nucleation score result was “inactive”.

Turning to SLCGLFRYAWYQFEFNDVRA, the amyloid nucleation score is 0.977 ± 0.12.

TLDPNIHESFFSAACWYSKA: the amyloid nucleation score entry is “inactive”.

As for QSLRRQYLNYIRSIFESMEN, the amyloid nucleation score entry was “inactive”.

As for WPSLYHQMYGVYLGLLVILK, the amyloid nucleation score entry was “inactive”.

In turn, RELFTFGVFRYQASL had an amyloid nucleation score of 0.817 ± 0.22.

Substance CENIVGMPDRRISSVAGPDG came in with an amyloid nucleation score of 0.486 ± 0.33.

The substance STSFNIRIFMYKFAYF displayed an amyloid nucleation score of 1.31 ± 0.095.

Regarding FPHRMLRPCYESDTFPPWTG, the amyloid nucleation score entry was “inactive”.

Take SFVKWVKNQHF: the amyloid nucleation score entry is “inactive”.

Regarding EHIEIRSSFEVSPHTPNPAS, the amyloid nucleation score result is “inactive”.

As to SIYYSAILMGYWMDVKSLQY, the amyloid nucleation score entry is “inactive”.

Regarding CVWLVVTSDFLFRQLL, the amyloid nucleation score turned out to be 1.73 ± 0.11.

Regarding VRVTVLFEIHGDVCMLMSVA, the amyloid nucleation score is 0.827 ± 0.13.

IVCNIN gave an amyloid nucleation score of -0.036 ± 0.55.

With SSTTE, the amyloid nucleation score entry was “inactive”.

Turning to DFRLPNSPYAHCYLMHRLII, the amyloid nucleation score entry is “inactive”.

SVYRSRSHRVFWEFLSGAT: the amyloid nucleation score result is “inactive”.

For INFTRSQYRFLIWYASQKMS, the amyloid nucleation score result was “inactive”.

KLASLFNYCSERKN: the amyloid nucleation score entry is “inactive”.

As to IRLPIGQGLC, the amyloid nucleation score entry was “inactive”.

Regarding ICEPADQV, the amyloid nucleation score result was “inactive”.

With IFTTNCYISNFYNGWWDV, the amyloid nucleation score stood at 2.91 ± 0.078.

As for CEYCFGMTSLTAWWCYVLRC, the amyloid nucleation score result is “inactive”.

For CYWIASRLFTKLSNYLSISG, the amyloid nucleation score result is “inactive”.

SSMWCMDRSLYTNYEYQRVL yielded an amyloid nucleation score of 0.054 ± 0.36.

On to LRSFQWVIVTMPLTRIRSDK, for which the amyloid nucleation score result was “inactive”.

On to SSSNLLKPSYFCKGSRGASQ, for which the amyloid nucleation score entry is “inactive”.

On to RFTRMWTDWCAGLSGSLRCS, for which the amyloid nucleation score entry was “inactive”.

In the case of LKNFIKWRGILPFFGTDFWM, the amyloid nucleation score entry was “inactive”.

Regarding YTRDRQV, the amyloid nucleation score result was “inactive”.

With HRMCVRRFRVFRESVEEVHF, the amyloid nucleation score entry is “inactive”.

For the substance EILISNCEVDRRLYRGGN, the amyloid nucleation score is -0.618 ± 0.98.

Consider TIYFF, for which the amyloid nucleation score worked out at 1.27 ± 0.11.

For DKVTHQCSISMSWAWRVHVV, the amyloid nucleation score result was “inactive”.

In the case of LLFRFMTGVVRLPRDNTYRK, the amyloid nucleation score result is “inactive”.

KFKENMYLTYSCLHKVIMRF: the amyloid nucleation score entry was “inactive”.

In the case of DRSLMRS, the amyloid nucleation score result was “inactive”.

HVDTSPSYIPPGIKLVRQRM gave an amyloid nucleation score of -0.528 ± 0.36.

Turning to VHVRWVVRMVSWKYLAGILL, the amyloid nucleation score entry is “inactive”.

With IRLDSYLDNMSMLLCKYWFC, the amyloid nucleation score entry is “inactive”.

CSRFIREADTWRNRDYWWVF registered an amyloid nucleation score of -0.349 ± 1.2.

Turning to WLFRGVVRNRRALARGIRAG, the amyloid nucleation score result is “inactive”.

Consider KYINFSLNS, for which the amyloid nucleation score entry was “inactive”.

With WLFMIARTYR, the amyloid nucleation score result is “inactive”.

ATLRAFATVYFHLVTHMFNF: the amyloid nucleation score entry is “inactive”.

For the substance RAYGPGRSASEALGRLCVGL, the amyloid nucleation score entry is “inactive”.

For VGIALASIK, the amyloid nucleation score entry was “inactive”.

As for SNYCCRVSFVIKLLRMVYNF, the amyloid nucleation score worked out at 2.42 ± 0.08.

VVVSSYNCVLVQVVICKWGR registered an amyloid nucleation score of 0.192 ± 0.85.

Regarding CYPFLWYCPNVCTVVSFDK, the amyloid nucleation score amounted to 2.46 ± 0.062.

Substance EIICLSLLCS returned an amyloid nucleation score of 2.18 ± 0.053.

As for ARDCGRFIFLWWRYSLTKRH, the amyloid nucleation score entry is “inactive”.

RFHSSLCCNMVWF yielded an amyloid nucleation score of 3.06 ± 0.06.

For the substance SDCCGRNHVPEGVLWSQFNY, the amyloid nucleation score entry is “inactive”.

As to ICSFFGNSPVRLQVYFLWSW, the amyloid nucleation score entry was “inactive”.

Turning to DVSRVIA, the amyloid nucleation score entry is “inactive”.

As to EVWRVSDSYSVDEIFVLLNL, the amyloid nucleation score entry was “inactive”.

Take VFWLRYMNVSRANARGNAS: the amyloid nucleation score result is “inactive”.

On to EFMKGFAWISMFNLRSVLNS, for which the amyloid nucleation score result was “inactive”.

Regarding RHVNCLAQLSDCKLTIM, the amyloid nucleation score was found to be 0.396 ± 0.38.

Consider LVVIWSRYSPRRNYPVTSNM, for which the amyloid nucleation score turned out to be 0.679 ± 0.24.

On to CTPFTLECW, for which the amyloid nucleation score is -0.193 ± 1.1.

In the case of KPRILFQCPIRKVLRVGVKF, the amyloid nucleation score result is “inactive”.

Turning to WFFLGFVLIIKWLGLHQYSF, the amyloid nucleation score result is “inactive”.

As to LMFRTLFK, the amyloid nucleation score was determined as 0.062 ± 0.62.

On to NFFESLMVMSDKASLSVMK, for which the amyloid nucleation score result was “inactive”.

Take WAYRCTR: the amyloid nucleation score result is “inactive”.

MYVQVS came in with an amyloid nucleation score of -0.795 ± 0.91.

GFCICEYDRCTIFSYNHYGA returned an amyloid nucleation score of 2.94 ± 0.054.

For the substance FQCWYNKIRKFWVVHRWVSM, the amyloid nucleation score result is “inactive”.

Turning to NRVDIRLVKCYWSGDSGGVE, the amyloid nucleation score entry was “inactive”.

For YKNKTSNMLICNAF, the amyloid nucleation score entry was “inactive”.

Take VNGCIRCCTPVSKYISVDLA: the amyloid nucleation score result was “inactive”.

As for RVCLL, the amyloid nucleation score is -0.539 ± 1.4.

Take CRQSVCFGAVC: the amyloid nucleation score result was “inactive”.

Turning to KYVRVLHCIDLFRSSLSHIG, the amyloid nucleation score entry is “inactive”.

Take QYVIIYEKQLGWRKFDFNSV: the amyloid nucleation score result is “inactive”.

Take YEVSTRRRVM: the amyloid nucleation score result is “inactive”.

On to TACLSVQMWFRFSVFSGVYL, for which the amyloid nucleation score result was “inactive”.

Consider PLTFT, for which the amyloid nucleation score entry was “inactive”.

For the substance LIARCKRAIAGGY, the amyloid nucleation score entry is “inactive”.

As to RLQMRSATLYCEGGSGAILY, the amyloid nucleation score result was “inactive”.

Turning to LKNSL, the amyloid nucleation score entry was “inactive”.

Consider HYADSVESRSALLWLVSFLF, for which the amyloid nucleation score result is “inactive”.

For the substance TNNTKERYIHLSFMTKWWTF, the amyloid nucleation score result was “inactive”.

With VILQMT, the amyloid nucleation score result was “inactive”.

Turning to LMKMHQCDSKVWNEMGDASN, the amyloid nucleation score entry is “inactive”.

For RTRFVCICTSSNSLLYGRSS, the amyloid nucleation score worked out at 0.714 ± 0.25.

With KYEVCSYFNLCGEGKYRTVV, the amyloid nucleation score entry is “inactive”.

RFLRRIIDIVMGQSGNWMIR: the amyloid nucleation score result is “inactive”.

For SIGWSLCENRRQPGSRWSLP, the amyloid nucleation score result was “inactive”.

For the substance FLGSLVSLRCKWFVAF, the amyloid nucleation score was 0.292 ± 0.75.

Regarding IYNPRSNINQFPDTFEPDQM, the amyloid nucleation score result is “inactive”.

In the case of VVVMPTNSECCYQYGGMFPM, the amyloid nucleation score entry is “inactive”.

With DSFLSGSEELSVSDCCCIAF, the amyloid nucleation score entry was “inactive”.

On to YRNSC, for which the amyloid nucleation score result was “inactive”.
